PMC6557989

How the values were obtained:
[1] = molecular target: Protein H (Streptococcus pyogenes (strain AP1)); assay: MST; Monolith NT.115; Alexa-488-labelled Protein H constant at 0.5 nM, C4BP at 16 concentrations; 50 mM Tris-HCl pH 7.4, 150 mM NaCl, 10 mM MgCl2, 0.05% Tween-20; 37°C
Target sequence in this assay (P50470 42-345 limits assumed): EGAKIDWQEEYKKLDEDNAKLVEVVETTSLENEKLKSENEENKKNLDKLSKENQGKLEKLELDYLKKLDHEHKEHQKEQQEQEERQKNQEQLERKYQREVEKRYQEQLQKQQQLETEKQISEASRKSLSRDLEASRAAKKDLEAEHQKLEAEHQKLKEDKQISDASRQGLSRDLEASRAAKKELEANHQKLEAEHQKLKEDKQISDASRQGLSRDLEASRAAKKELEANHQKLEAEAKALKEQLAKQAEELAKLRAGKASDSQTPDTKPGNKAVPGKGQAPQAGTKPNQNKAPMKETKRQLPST

[2] = molecular target: Protein H on the surface of Streptococcus pyogenes AP1 (Streptococcus pyogenes (endogenous in strain AP1))
[3] = molecular target: Protein H (Streptococcus pyogenes (strain AP1)); assay: SEC; Superose 6 10/30; 5 nmol Protein H alone at 8°C and 28°C; column calibrated with high molecular weight markers; monomer to dimer
[4] = molecular target: C4b-binding protein (C4BP), human, purified from plasma (human) (UniProt P04003); assay: SEC; Superose 6 10/30, PBS, ambient temperature; 0.25 nmol C4BP with varying amounts of Protein H, pre-incubated 30 min at room temperature; area of the free Protein H peak fitted
C4b-binding protein (C4BP), human, purified from plasma (human), sequence (P04003 49-597, chain 1 of 2): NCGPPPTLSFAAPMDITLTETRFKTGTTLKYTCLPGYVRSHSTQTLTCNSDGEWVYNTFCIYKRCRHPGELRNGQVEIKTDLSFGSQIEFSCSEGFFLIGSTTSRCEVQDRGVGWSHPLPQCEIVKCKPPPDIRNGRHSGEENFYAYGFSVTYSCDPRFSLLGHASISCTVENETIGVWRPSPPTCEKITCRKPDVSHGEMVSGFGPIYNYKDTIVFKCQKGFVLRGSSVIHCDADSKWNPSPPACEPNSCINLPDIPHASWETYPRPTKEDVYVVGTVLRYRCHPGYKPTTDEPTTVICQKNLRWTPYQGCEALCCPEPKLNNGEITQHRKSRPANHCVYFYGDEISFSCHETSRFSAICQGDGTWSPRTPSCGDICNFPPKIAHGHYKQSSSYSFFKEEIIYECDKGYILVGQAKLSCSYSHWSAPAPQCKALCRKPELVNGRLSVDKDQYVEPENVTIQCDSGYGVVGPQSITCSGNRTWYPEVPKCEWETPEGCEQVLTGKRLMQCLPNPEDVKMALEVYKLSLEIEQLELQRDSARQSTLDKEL
C4b-binding protein (C4BP), human, purified from plasma (human), sequence (P20851 18-252, chain 2 of 2, further chain): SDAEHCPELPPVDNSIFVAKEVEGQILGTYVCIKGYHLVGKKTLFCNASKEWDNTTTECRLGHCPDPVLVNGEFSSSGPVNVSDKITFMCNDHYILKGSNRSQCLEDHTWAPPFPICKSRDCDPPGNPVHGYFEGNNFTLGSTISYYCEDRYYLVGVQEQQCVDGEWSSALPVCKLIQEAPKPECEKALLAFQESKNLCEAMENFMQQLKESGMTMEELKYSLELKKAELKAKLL

C4b-binding protein (C4BP), human, purified from plasma, sequence (P04003 49-597): as the sequence (P04003 49-597, chain 1 of 2) above
C4b-binding protein (C4BP), human, purified from plasma, sequence (P20851 18-252): as the sequence (P20851 18-252, chain 2 of 2, further chain) above

“C4b-binding protein (C4BP), human, purified from plasma (from UniProt P04003 49-597; P20851 18-252) (complex)” was tested, and the Kd [1] was 180 nM.

In the case of “Protein H on the surface of Streptococcus pyogenes AP1 (natural protein)”, the aggregation of S. pyogenes AP1 grown overnight at 35°C, 37°C or 41°C (OD600 before against after vortexing); at 41°C all bacteria remained dispersed [2] is reported as 70%.

Protein H (natural protein) was tested, and the stoichiometry N [3] was 2 and the stoichiometry N (Protein H monomers per C4BP) [4] was 26.
